The results in this text go back to PMC5083130.

The target of assay [1] is NCS-Orf16 (S. carzinostaticus). In words: SEC. Background: In gel filtration, larger molecules generally elute earlier.
In assay [2] the target is SgcJ (Streptomyces globisporus). In words: SEC.

NCS-Orf16 (natural protein) came in with a stoichiometry N in assay [1] of 2.

SgcJ (natural protein) came in with a stoichiometry N in assay [2] of 2.

Broadly, the stoichiometry N is a count of units in the complex or per binding partner.
